The values that follow come from publication PMC7259690.

The target in the test is 10042.05.SOSIP trimer (recombinant HIV-1 Env trimer 10042.05 from subject VC10042, cleaved SOSIP form) (HIV-1). As to the kind of experiment: SEC + native gel or EMSA; Superdex 200 16/600 pg SEC after lectin and ion exchange steps; fractions and final preparation on blue native PAGE; analytical SEC as QC. Background: A gel shift assay detects complexes by their altered migration in electrophoresis.

In the case of “10042.05.SOSIP trimer (recombinant HIV-1 Env trimer 10042.05 from subject VC10042, cleaved SOSIP form) (complex)”, the stoichiometry N (usually the number of molecules, sites or subunits per partner or assembly) came to 3.
